According to the supplement of paper PMC10567573:

B1: MCOLN1 (parent)
chain: EEEDLRRRLKYFFMSPCDKFRAKG

Variants of: B1
Assay: protein stability index of a GFP-peptide fusion (GPS, HEK-293T) (PSI 1-6); higher = more stable
Details: c terminus: a fixed tail appended
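Note: lentivirally expressed fusions sorted by FACS into six bins by GFP to DsRed ratio, PSI derived from sequencing read proportions per bin multiplied by bin number.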

Protein stability index of substitutions, site by site:
A22: R 1.95; W 1.36; H 2.52; Q 2.13; D 2.64; F 2.29; G 2.67; E 2.18; C 1.97; I 1.91; N 2.21; K 2.5; L 1.85; Y 1.88; T 2.19; S 2.27; M 2.13
L9: H 3.32; R 3.35; G 3.64; D 4.1; V 3.15; C 3.03; A 3.3; P 3.64; M 3.27; Y 2.97; S 3.91; I 1.92; N 3.5; E 4.4; K 2.89; Q 3.7; W 2.32; T 3.33; F 2.96
K23: L 1.86; P 2.5; R 2.65; N 2.56; I 2.01; A 2.78; D 3.56; F 1.64; S 2.26; W 1.2; C 2.43; T 2.31; G 1.84; Y 1.53; E 2.47; Q 2.59; H 1.84; M 1.33
K10: N 3.21; R 2.33; D 3.41; F 1.82; M 1.93; A 2.15; E 2.67; Y 1.67; T 2.15; L 2.97; Q 2.26; W 2.1; C 2.15; G 2.58; S 2.3; V 2.32; P 2.79; I 1.62; H 2.11
R21: G 3.01; D 3.15; P 3.09; S 3.1; A 2.52; C 2.65; K 2.93; T 3.05; Q 3.04; I 2.51; Y 2.54; V 2.56; F 2.4; M 2.72; E 3.45; L 2.19; H 3.28; W 1.81; N 3.01
C17: A 2.21; V 2.53; G 2.69; L 2.19; W 2.13; E 3.23; F 2.1; I 2.59; Q 3.58; D 3.08; S 2.54; T 2.19; R 1.58; K 2.1; N 2.89; P 2.9; H 2.61; M 1.97
F12: A 3.53; S 3.58; Q 3.53; K 2.98; D 3.61; H 2.5; Y 2.69; C 3.27; M 2.91; G 3.43; R 2.91; L 3.73; P 3.56; V 2.65; W 2.39; I 2.93; N 4.11; T 3.62; E 3.9
R8: N 3.29; W 2.42; I 1.76; M 2.05; H 2.35; E 3.21; D 3.11; C 1.86; V 2.62; G 2.97; L 2.1; Y 1.64; Q 3; A 2; P 3.23; T 2.42; S 2.67; K 2.71; F 1.42
F20: A 3.82; I 2.14; T 3.45; R 3.04; H 2.61; C 2.9; W 2.21; D 3.79; M 2.77; Y 2.28; L 3.33; N 3.62; S 3.58; G 3.04; P 3.59; Q 3.23; K 3.58; V 3.06
P16: V 2.12; T 2.68; K 2.61; A 2.12; H 2.09; I 1.95; Q 1.84; M 1.78; W 2.19; S 2.81; R 2.26; Y 2.39; N 2.11; E 1.87; C 1.84; G 1.92; D 3.12; L 1.7; F 2.2
D18: P 1.73; S 2.18; W 2.25; M 2.35; Q 2.2; N 1.77; R 1.93; C 1.83; K 1.94; G 2.06; H 2.05; E 1.94; T 1.53; V 2.44; Y 2.67; I 2.49; L 2.32; A 1.91
S15: I 1.82; H 2.79; W 2.49; L 2.05; Q 2.84; R 2.91; K 2.63; G 2.77; A 2.42; D 3.4; P 1.65; F 2.26; T 3.1; N 2.62; M 1.94; Y 2.62; V 2; C 1.66; E 3.26
Y11: T 2.82; V 2.93; P 3.33; R 2.38; F 2.88; C 2.77; M 2.79; W 1.42; H 2.46; S 2.88; N 3.23; K 2.65; Q 3.25; G 3.2; I 1.93; L 2.23; E 3.73; D 2.87; A 2.9
M14: K 3.14; S 2.96; G 3.56; V 2.66; R 2.73; Y 2.23; P 3.16; H 2.59; L 2.14; C 2.24; Q 3.04; A 3.27; T 2.79; N 3.3; I 2.87; W 3.05; F 2.83; D 3.23; E 2.65
F13: K 3.23; E 3.74; G 3.78; L 3.2; T 3.61; R 3.54; M 2.67; A 3.88; P 3.97; Q 3.65; S 3.37; H 3.75; D 3.22; N 3.77; Y 3.81; I 3.15; V 3.45; W 3; C 3.8
K19: F 2.21; Y 2.75; C 2.33; V 2.51; S 2.4; L 2.14; D 2.45; E 2.94; A 2.21; G 2.37; P 2.66; R 1.55; Q 2.73; N 2.48; T 3.01; M 2.27; H 2.65; W 1.69; I 1.74
R7: P 3.33; S 2.82; M 1.55; H 2.73; C 2.38; W 1.91; K 2.63; N 2.55; E 3.33; V 2; F 2.44; Y 2.65; D 3.01; Q 2.52; I 2.39; L 2.29; T 2.65; A 2.35
R6: T 2.66; P 2.11; K 1.9; M 1.42; Q 3.04; L 1.76; W 1.8; Y 1.64; S 3.6; V 2.34; N 3.78
G24: C 1.82; E 3.07; D 2.4; I 2.37; F 1.8; H 2.07; A 2.43
